In IntAct's records for PubMed 18354483:

B1: RE1-silencing transcription factor (Homo sapiens), Q13127 (parent)
chain: MATQVMGQSSGGGGLFTSSGNIGMALPNDMYDLHDLSKAELAAPQLIMLANVALTGEVNGSCCDYLVGEERQMAELMPVGDNNFSDSEEGEGLEESADIKGEPHGLENMELRSLELSVVEPQPVFEASGAPDIYSSNKDLPPETPGAEDKGKSSKTKPFRCKPCQYEAESEEQFVHHIRVHSAKKFFVEESAEKQAKARESGSSTAEEGDFSKGPIRCDRCGYNTNRYDHYTAHLKHHTRAGDNERVYKCIICTYTTVSEYHWRKHLRNHFPRKVYTCGKCNYFSDRKNNYVQHVRTHTGERPYKCELCPYSSSQKTHLTRHMRTHSGEKPFKCDQCSYVASNQHEVTRHARQVHNGPKPLNCPHCDYKTADRSNFKKHVELHVNPRQFNCPVCDYAASKKCNLQYHFKSKHPTCPNKTMDVSKVKLKKTKKREADLPDNITNEKTEIEQTKIKGDVAGKKNEKSVKAEKRDVSKEKKPSNNVSVIQVTTRTRKSVTEVKEMDVHTGSNSEKFSKTKKSKRKLEVDSHSLHGPVNDEESSTKKKKKVESKSKNNSQEVPKGDSKVEENKKQNTCMKKSTKKKTLKNKSSKKSSKPPQKEPVEKGSAQMDPPQMGPAPTEAVQKGPVQVEPPPPMEHAQMEGAQIRPAPDEPVQMEVVQEGPAQKELLPPVEPAQMVGAQIVLAHMELPPPMETAQTEVAQMGPAPMEPAQMEVAQVESAPMQVVQKEPVQMELSPPMEVVQKEPVQIELSPPMEVVQKEPVKIELSPPIEVVQKEPVQMELSPPMGVVQKEPAQREPPPPREPPLHMEPISKKPPLRKDKKEKSNMQSERARKEQVLIEVGLVPVKDSWLLKESVSTEDLSPPSPPLPKENLREEASGDQKLLNTGEGNKEAPLQKVGAEEADESLPGLAANINESTHISSSGQNLNTPEGETLNGKHQTDSIVCEMKMDTDQNTRENLTGINSTVEEPVSPMLPPSAVEEREAVSKTALASPPATMAANESQEIDEDEGIHSHEGSDLSDNMSEGSDDSGLHGARPVPQESSRKNAKEALAVKAAKGDFVCIFCDRSFRKGKDYSKHLNRHLVNVYYLEEAAQGQE

Variants of: B1
Details: with fbw1a_human BTRC

effect of a mutation on the interaction | Variant
disrupting interaction strength | S1024A
disrupting interaction strength | S1027A
disrupting interaction strength | S1030A
